B1: Centrosomal P4.1-associated protein (Homo sapiens), Q9HC77 (parent)
chain: MFLMPTSSELNSGQNFLTQWMTNPSRAGVILNRGFPILEADKEKRAAVDISTSFPIKGTHFSDSFSFINEEDSLLEEQKLESNNPYKPQSDKSETHTAFPCIKKGPQVAACHSAPGHQEENKNDFIPDLASEFKEGAYKDPLFKKLEQLKEVQQKKQEQLKRQQLEQLQRLMEEQEKLLTMVSGQCTLPGLSLLPDDQSQKHRSPGNTTTGERATCCFPSYVYPDPTQEETYPSNILSHEQSNFCRTAHGDFVLTSKRASPNLFSEAQYQEAPVEKNNLKEENRNHPTGESILCWEKVTEQIQEANDKNLQKHDDSSEVANIEERPIKAAIGERKQTFEDYLEEQIQLEEQELKQKQLKEAEGPLPIKAKPKQPFLKRGEGLARFTNAKSKFQKGKESKLVTNQSTSEDQPLFKMDRQQLQRKTALKNKELCADNPILKKDSKARTKSGSVTLSQKPKMLKCSNRKSLSPSGLKIQTGKKCDGQFRDQIKFENKVTSNNKENVTECPKPCDTGCTGWNKTQGKDRLPLSTGPASRLAAKSPIRETMKESESSLDVSLQKKLETWEREKEKENLELDEFLFLEQAADEISFSSNSSFVLKILERDQQICKGHRMSSTPVKAVPQKTNPADPISHCNRSEDLDHTAREKESECEVAPKQLHSLSSADELREQPCKIRKAVQKSTSENQTEWNARDDEGVPNSDSSTDSEEQLDVTIKPSTEDRERGISSREDSPQVCDDKGPFKDTRTQEDKRRDVDLDLSDKDYSSDESIMESIKHKVSEPSRSSSLSLSKMDFDDERTWTDLEENLCNHDVVLGNESTYGTPQTCYPNNEIGILDKTIKRKIAPVKRGEDLSKSRRSRSPPTSELMMKFFPSLKPKPKSDSHLGNELKLNISQDQPPGDNARSQVLREKIIELETEIEKFKAENASLAKLRIERESALEKLRKEIADFEQQKAKELARIEEFKKEEMRKLQKERKVFEKYTTAARTFPDKKEREEIQTLKQQIADLREDLKRKETKWSSTHSRLRSQIQMLVRENTDLREEIKVMERFRLDAWKRAEAIESSLEVEKKDKLANTSVRFQNSQISSGTQVEKYKKNYLPMQGNPPRRSKSAPPRDLGNLDKGQAASPREPLEPLNFPDPEYKEEEEDQDIQGEISHPDGKVEKVYKNGCRVILFPNGTRKEVSADGKTITVTFFNGDVKQVMPDQRVIYYYAAAQTTHTTYPEGLEVLHFSSGQIEKHYPDGRKEITFPDQTVKNLFPDGQEESIFPDGTIVRVQRDGNKLIEFNNGQRELHTAQFKRREYPDGTVKTVYANGHQETKYRSGRIRVKDKEGNVLMDTEL

Variants of: B1
Details: with tnks1_human TNKS

effect of a mutation on the interaction	Variant
disrupting interaction	G1303A
disrupting interaction	D1302A

— IntAct's records for PubMed 22699936
